Measurements from US20100092481A1.

B1: 6B4 (antibody, V domains shown)
VH: QVQLVESGGGVVQPGRSLRLSCAASGFRFNEFNMHWVRQAPGKGLEWVAVISIDGRHKYNADSVEGRFTISRDNSRNTLYLQMNSLRVEDTALYYCVTDGKAVDGFSGILEFWGQGTPVTVST
VL: EIVLTQSPATLSLSPGERATLSCWASQSVGGYLAWYQQKPGQAPRLLIYDASIRATGIPARFSGSGSGTHFTLTINSLEPEDFAVYYCQQRNNWPPLTFGGGTKVEIK
B2: 3G16 (antibody, V domains shown)
VH: RAQLVQSAAEMKNPGASVKVSCEASGYTFTGYYVHWMRQAPGQGLEWMGWINPMTGATKSPQKFQGRVTMTRDTSTTATHIELTRLRSDDSAVFFCARGGPTSTRITGKRHFDLWGRGTLITVAS
VL: QSALTQPASVSGSPGESITISCTGTISDVGAYNSVSWYQQHSGTAPELIIYDVTNRPAGVSSRFSGSKSGNTASLTISWLQSEDEAEYYCSSYTTSDTYVFGSGTQVTVL
B3: 11B12 (antibody, V domains shown)
VH: QMQLVQSGPQVKKPGTSVKVSCKASGFTFTSSAMQWVRQARGQRPEWIGWIVLGSGNTNYAQKFQERVTLTRDMSTATAYMELSSLRSEDTAVYYCAADRGRGGYNVYTYWGQGTLVAVSS
VL: EIVMTQSPGTLSLSPGERATLSCRASQTISNTYVAWYQQKPGQAPRLLIYGASSRATGIPDRFSGSGSGTDFTLTIRRLEPEDFAVYYCQQNGQSPWTFGQGTNVEIK
B4: 13H11 (antibody, V domains shown)
VH: QVQLVQSGAEVKKPGASVKVSCKASGYTFTNYYIHWVRQAPGQGLEWMGIIHPSSGGTSYAQKFQGRVTMTRDTSTSTVSMDLSSLRSEDTAVYYCGRAFRILGLSDVFVNDWGQGTVVTVSS
VL: DIQMTQSPSSLSASVGDRVTITCRASQGINNYLAWYQQKPGKVPKLLIYAASTLQSGVPSRFSGSGSGTAFTLTILSLQPEDVATYYCQKYNSAPFTFGPGTKVDIK

Legend:
[1] = target: gB 69-78 peptide (human cytomegalovirus) (UniProt P06473); test: ELISA on peptide
[2] = target: T1, hCMV gH protein, full length, expressed in HEK293T cells (human cytomegalovirus), P12824; test: cell cross-competition, 20x excess; competitor 3G16-biotin; settings: remark: other sources report otherwise
[3] = target: T1, hCMV gH protein, full length, expressed …; test: cell cross-competition, 20x excess; competitor 11B12-biotin; settings: remark: other sources report otherwise
[4] = target: T1, hCMV gH protein, full length, expressed …; test: cell cross-competition, 20x excess; competitor 13H11-biotin; settings: remark: other sources report otherwise

Binder	EC50 [1] [µg/mL]	Inhibition of binding (%) [2] [%]	Inhibition of binding (%) [3] [%]	Inhibition of binding (%) [4] [%]
B1	0.044	–	–	–
B2	–	100	0	0
B3	–	0	100	100
B4	–	0	100	100
